# From IntAct's records for PubMed 11520064
# B1: Frizzled-8 (Mus musculus), Q61091 (parent)
# chain: MEWGYLLEVTSLLAALAVLQRSSGAAAASAKELACQEITVPLCKGIGYNYTYMPNQFNHDTQDEAGLEVHQFWPLVEIQCSPDLKFFLCSMYTPICLEDYKKPLPPCRSVCERAKAGCAPLMRQYGFAWPDRMRCDRLPEQGNPDTLCMDYNRTDLTTAAPSPPRRLPPPPPPGEQPPSGSGHSRPPGARPPHRGGSSRGSGDAAAAPPSRGGKARPPGGGAAPCEPGCQCRAPMVSVSSERHPLYNRVKTGQIANCALPCHNPFFSQDERAFTVFWIGLWSVLCFVSTFATVSTFLIDMERFKYPERPIIFLSACYLFVSVGYLVRLVAGHEKVACSGGAPGAGGAGGAGGAAAAGAGAAGAGASSPGARGEYEELGAVEQHVRYETTGPALCTVVFLLVYFFGMASSIWWVILSLTWFLAAGMKWGNEAIAGYSQYFHLAAWLVPSVKSIAVLALSSVDGDPVAGICYVGNQSLDNLRGFVLAPLVIYLFIGTMFLLAGFVSLFRIRSVIKQQGGPTKTHKLEKLMIRLGLFTVLYTVPAAVVVACLFYEQHNRPRWEATHNCPCLRDLQPDQARRPDYAVFMLKYFMCLVVGITSGVWVWSGKTLESWRALCTRCCWASKGAAVGAGAGGSGPGGSGPGPGGGGGHGGGGGSLYSDVSTGLTWRSGTASSVSYPKQMPLSQV
# Variants of: B1
# Details: with gopc_mouse Gopc
row,Variant,effect of a mutation on the interaction
1,V685A,disrupting interaction
